# Laboratory results: the domain aggregation screens of Martell et al. (2025)
# Assay: soluble fraction after stress (log2 fold change); higher = more stays soluble; pooled small domains, quantitative proteomics
# Settings: stress: 75 degC
# 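Note: 20 min heating vs room temperature control held 20 min.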
row,Sequence,soluble fraction (log2)
1,HMAADWTAIKLAYVNGGMSMRELAQRFHVGAAGLMKRAAKEGWEAERQQNSAKVSNAAQMLIN,0.049
2,HMAAEEAFPGGRIVQNAEENRLQILFDEIPGEDVRAALKSHGFRWSPKNKAWQRQLTQNAEYDARRILGI,-0.06
3,HMAAEELTVDKILTAQSFGVTAEAILAKVNDPANTVATLTQADVDRLRAAGVPEGVVTALQARAPQ,0.118
4,HMAAENAVGARVKALREAMDLSLRDLSERSGVSPTMLSQVERGSTSPTLAVAEKIAAGLDLSLSQLLRL,0.137
5,HMAAGADEATTVPNVSGDTLNQAIKSLKAEGLGYMLSGAGARVRDQMPEPGAEMTKGSVVMLYMDGDAEVD,-0.0497
6,HMAAGVESLTEKEFAVASLVGGGASNREIAERLAMSERTVKSHLSSIFRKMDVRDRVQLALAMND,-0.0767
7,HMAAIPATVDEETYRRLKPMLKQYGILYHEFKPLRSGKKGAVELIFMEKDLALVQELLSRLKKEK,0.432
8,HMAAIPEQVSEEVVSAVKASGIDPGKVTKEQWTSLLKGRRTALGSSSGKLFMLSKAPVGYTLKAVNA,0.439
9,HMAAMDMFVKLDALDAELTEQLKALPAEPDDARVERGLALLTDYDHRIKALLTEIFGGENDFDKVL,-3.1
10,HMAAPPPLSDYRNMQEAEHIRNILLQHHGNVRRAAAALELSRPYLYQKMKQLGINIAELRELSLSHSS,-1.03
11,HMAASEAESIRILLSEGVDRVHLRKPQSAEADMRRLIEALPPELYPRLTLQDHLHLAGEYGT,-0.0361
12,HMAATGPLTPREAEIARLAAGHLSNRQIAEQLVVSERTVENHLYRIFIKLAVTGRDDLAAALAATEQ,-2.55
13,HMAATNVKVPDLKGWDYNNAVGKYGDKLSFVKKSIYSDSVSKGIIIYNARVGETVAQGTTIEVTVSLGPKG,-1.46
14,HMAAVPYQVKITTEDLRIRTGPGTNHDFTGQYTGKGVFTIVEESEGSGAPIWGRLKSGAGWIGIDPSWSVR,-0.546
15,HMADAGQTTAATELKQAPNAGSATISQLSAGQTLQIGTRQGAWYQVKTPQGEGWVRMLSVRLQ,-0.0302
16,HMADEGFRQTVLAVLARWESKIHHGQYNALKAKVMNGNWSSFVKQVVKFQGKFIHPDAAKELLGLFG,-3.5
17,HMADFIKEIKTNNPRQLLKSILSSFMPRALILELEMLLWNDLKSKPIGEWSNTQIENVGKLLNNWILKPAA,0.162
18,HMADIWDLLRSEYKLTETDVRMLTDMLPDELMNDFRSEVLALRDRMNRYKVNNPKSYVVTSLKNFIIQHTP,-1.09
19,HMADKNIIGVLSAADNLGKVRITTANGEKYIITVPDGLSDIVKTYWEEEVSVKYVIEKRRKILVDIDG,-2.04
20,HMADLIIMSSDATEKQVDKVINKIKNMGFNVNISKGTEKTIIGIIGDTRGISDEVFKIMPGVIEVISILRD,-1.09
21,HMADLIVFTTDANKEKKVDDETYFYLDVVSDGKLVENYELTEKQYNYIKDLGVGEYVYNEKGKLDSYTAFT,-0.00206
22,HMADPLQLLEQQRQDYIQAVTEYLNSHPNAKPIWDVMKKDAGYGDMKLTDIPLGILKKLYITLT,-0.65
23,HMADRVFGHIPGVAVGSIFPDRRSLSQTGVHRPTQAGISGNKTDGADSIVVSGGYRDDRDYGDLIIYTG,-0.107
24,HMADTFVMPDLVYRRYEPVRGYFERGGFHMGAVKFEPYEGISDGTILRQNPLPGHPLRRRDVISLVVAAS,-2.4
25,HMADYYETLGVERTASEEDIKRAYRKMSRKYHPDIAGPEFEEKFKEVNTAYEVLSDPDKRRMYDAGVDPND,0.0815
26,HMADYYSILGLTKNATDIEIKSAFRKLAKIYHPDKNPDPNARVLFEHILKAYDTLINPHSRRRYDSL,-1.31
27,HMAEELELFHRLISVTGVGPKGALGFLSQLKPQEIILAILSDDVKTLSKAPGVGRKTAQRVILELKDKF,-1.07
28,HMAEGPYSGKKVEKYPGGMEKRETMYSEGKLTRVTEFHQSGQKKMEVKVDANGQWKRLYWDNNGNPT,-0.0401
29,HMAEIIVHEINRHLGESDEPVEFPEERREEAVAELLKNFHNDDAFRKMDDGKYEVALDGEAVREAARSLLA,0.175
30,HMAELTTVQAADILHVSRPFLIKLLDEGQIPYHRVGKHRRIRMEDVMNYKRAIDQQREAVLDQLVAEA,-0.371
